33 molecules from patent US20240059799A1 (Pfizer, published 2024) can be followed below.

T1: recombinant human TL1A (human, UniProt O95150 71-251)
T1 construct: The ELISA method says only 'recombinant TL1A' coated on plates; homotrimeric cytokine; also called TNFSF15; recombinant TL1A
T1 chain: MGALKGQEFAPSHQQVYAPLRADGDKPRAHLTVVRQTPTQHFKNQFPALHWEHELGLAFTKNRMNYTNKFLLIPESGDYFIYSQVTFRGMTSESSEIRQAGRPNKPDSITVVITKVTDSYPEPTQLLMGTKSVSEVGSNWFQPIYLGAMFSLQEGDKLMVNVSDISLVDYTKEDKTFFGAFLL

B1: TL1A-0002 (antibody, human IgG1, kappa, V domains shown)
VH: QVQLVQSGAEVKKPGASVKVSCKASGYDFTYYGISWVRQAPGQGLEWMGWISTYNGNTHYARMLQGRVTMTTDTSTRTAYMELRSLRSDDTAVYYCARENYYGSGAYRGGMDVWGQGTTVTVSS
VL: EIVLTQSPATLSLSPGERATLSCRASQSVSSYLAWYQQKPGQAPRLLIYDASNRATGIPARFSGSGSGTDFTLTISSLEPEDFAVYYCQQRSNWPWTFGQGTKVEIKR
notes: human IgG1 effector-function-minimized / human kappa; also called parental TL1A-0002 antibody
B2: TL1A-0252 (antibody, V domains shown)
VH: B1 VH with G56T, R62P, M63S, R77S, N100S, Y107F
VL: DIQMTQSPSSLSASVGDRVTITCRASQSVSSYLAWYQQKPGKAPKLLIYDASNRATGVPSRFSGSGSGTDFTLTISSLQPEDFATYYCQQRSNWPWTFGQGTKVEIKR
notes: IgG1 effector-minimized/kappa
B3: TL1A-0189 (antibody, human IgG1, kappa, V domains shown)
VH: B1 VH with R77S
VL: B2 VL
notes: IgG1 effector-minimized/kappa
B4: TL1A-0259 (antibody, V domains shown)
VH: B1 VH with F29Y, G56D, R62Q, M63K, R77S, N100S, Y107H
VL: B2 VL
notes: IgG1 effector-minimized/kappa
B5: TL1A-0269 (antibody, V domains shown)
VH: B1 VH with F29Y, N55G, R62P, M63S, R77S, N100S, Y107H
VL: B2 VL
notes: IgG1 effector-minimized/kappa
B6: TL1A-0263 (antibody, human IgG1, kappa, V domains shown)
VH: B1 VH with F29Y, G56T, N57G, R62Q, M63K, R77S, N100S, Y107H
VL: B2 VL
notes: human IgG1 effector-function-minimized / human kappa
B7: TL1A-0270 (antibody, human IgG1, kappa, V domains shown)
VH: B1 VH with T30S, G56D, R62P, M63S, R77S, N100S, Y107F
VL: B2 VL
notes: as for B6
B8: TL1A-0244 (antibody, V domains shown)
VH: B1 VH with G56D, R62Q, M63K, R77S, N100S, Y107F
VL: B2 VL
notes: IgG1 effector-minimized/kappa
B9: TL1A-0254 (antibody, V domains shown)
VH: B1 VH with N55G, R62P, M63S, R77S, N100S, Y107F
VL: B2 VL
notes: IgG1 effector-minimized/kappa
B10: TL1A-0248 (antibody, V domains shown)
VH: B1 VH with G56T, N57G, R62Q, M63K, R77S, N100S, Y107F
VL: B2 VL
notes: IgG1 effector-minimized/kappa
B11: TL1A-0042 (antibody, human IgG1, kappa, V domains shown)
VH: B1 VH
VL: B2 VL
notes: TL1A-0002 heavy chain with light chain CDRs grafted onto IGKV1-39*01; human IgG1 effector-function-minimized / human kappa
B12: TL1A-0258 (antibody, human IgG1, kappa, V domains shown)
VH: B1 VH with F29Y, G56D, R62Q, M63K, R77S, N100S, Y107F
VL: B2 VL
notes: as for B6
B13: TL1A-0256 (antibody, human IgG1, kappa, V domains shown)
VH: B1 VH with F29Y, G56D, R62P, M63S, R77S, N100S, Y107F
VL: B2 VL
notes: as for B6
B14: TL1A-0272 (antibody, human IgG1, kappa, V domains shown)
VH: B1 VH with T30S, G56D, R62Q, M63K, R77S, N100S, Y107F
VL: B2 VL
notes: as for B6
B15: TL1A-0271 (antibody, human IgG1, kappa, V domains shown)
VH: B1 VH with T30S, G56D, R62P, M63S, R77S, N100S, Y107H
VL: B2 VL
notes: as for B6
B16: TL1A-0265 (antibody, human IgG1, kappa, V domains shown)
VH: B1 VH with F29Y, G56T, N57V, R62P, M63S, R77S, N100S, Y107H
VL: B2 VL
notes: as for B6
B17: TL1A-0260 (antibody, human IgG1, kappa, V domains shown)
VH: B1 VH with F29Y, G56T, N57G, R62P, M63S, R77S, N100S, Y107F
VL: B2 VL
notes: as for B6
B18: TL1A-0242 (antibody, V domains shown)
VH: B1 VH with G56D, R62P, M63S, R77S, N100S, Y107F
VL: B2 VL
notes: IgG1 effector-minimized/kappa
B19: TL1A-0264 (antibody, human IgG1, kappa, V domains shown)
VH: B1 VH with F29Y, G56T, N57V, R62P, M63S, R77S, N100S, Y107F
VL: B2 VL
notes: as for B6
B20: TL1A-0247 (antibody, V domains shown)
VH: B1 VH with G56T, N57G, R62P, M63S, R77S, N100S, Y107H
VL: B2 VL
notes: IgG1 effector-minimized/kappa
B21: TL1A-0266 (antibody, human IgG1, kappa, V domains shown)
VH: B1 VH with F29Y, G56T, R62P, M63S, R77S, N100S, Y107F
VL: B2 VL
notes: as for B6
B22: TL1A-0268 (antibody, V domains shown)
VH: B1 VH with F29Y, N55G, R62P, M63S, R77S, N100S, Y107F
VL: B2 VL
notes: IgG1 effector-minimized/kappa
B23: TL1A-0245 (antibody, V domains shown)
VH: B1 VH with G56D, R62Q, M63K, R77S, N100S, Y107H
VL: B2 VL
notes: IgG1 effector-minimized/kappa
B24: TL1A-0249 (antibody, V domains shown)
VH: B1 VH with G56T, N57G, R62Q, M63K, R77S, N100S, Y107H
VL: B2 VL
notes: IgG1 effector-minimized/kappa
B25: TL1A-0262 (antibody, human IgG1, kappa, V domains shown)
VH: B1 VH with F29Y, G56T, N57G, R62Q, M63K, R77S, N100S, Y107F
VL: B2 VL
notes: as for B6
B26: TL1A-0243 (antibody, V domains shown)
VH: B1 VH with G56D, R62P, M63S, R77S, N100S, Y107H
VL: B2 VL
notes: IgG1 effector-minimized/kappa
B27: TL1A-0255 (antibody, V domains shown)
VH: B1 VH with N55G, R62P, M63S, R77S, N100S, Y107H
VL: B2 VL
notes: IgG1 effector-minimized/kappa
B28: TL1A-0257 (antibody, human IgG1, kappa, V domains shown)
VH: B1 VH with F29Y, G56D, R62P, M63S, R77S, N100S, Y107H
VL: B2 VL
notes: as for B6
B29: TL1A-0253 (antibody, V domains shown)
VH: B1 VH with G56T, R62P, M63S, R77S, N100S, Y107H
VL: B2 VL
notes: IgG1 effector-minimized/kappa
B30: TL1A-0261 (antibody, human IgG1, kappa, V domains shown)
VH: B1 VH with F29Y, G56T, N57G, R62P, M63S, R77S, N100S, Y107H
VL: B2 VL
notes: as for B6
B31: TL1A-0246 (antibody, V domains shown)
VH: B1 VH with G56T, N57G, R62P, M63S, R77S, N100S, Y107F
VL: B2 VL
notes: IgG1 effector-minimized/kappa
B32: TL1A-0267 (antibody, human IgG1, kappa, V domains shown)
VH: B1 VH with F29Y, G56T, R62P, M63S, R77S, N100S, Y107H
VL: B2 VL
notes: as for B6
B33: TL1A-0251 (antibody, V domains shown)
VH: B1 VH with G56T, N57V, R62P, M63S, R77S, N100S, Y107H
VL: B2 VL
notes: IgG1 effector-minimized/kappa

Positions count from the first letter of the chain named.

This experiment concerns the target T1, recombinant human TL1A. The experiment can be described thus: competition ELISA on coated recombinant TL1A; competitor biotinylated TL1A-0002. The method, then: For this competition ELISA assay procedure, 96-well high binding plates (Corning, product number 3590) were coated with 1 μg/mL recombinant TL1A in 100 μL/well in Phospate Buffered Saline (PBS) overnight at 4° C. Plates were then blocked in PBS+0.02% casein solution and washed with PBS+0.05% Tween-20 following standard ELISA protocol. […] Plates were washed with PBS+0.05% Tween-20 following standard ELISA protocol, and Streptavidin-HRP (Southern Biotech, product number 7100-05) diluted to 1:10,000 in assay buffer was added to plates and incubated for 25-30 minutes at room temperature. Next, the plates were washed with PBS+0.05% Tween-20 following standard ELISA protocol, and then TMB substrate (BioFX Laboratories, catalog number TMBW-0100-01) was added to plates. Reactions were stopped after approximately 5 minutes by adding 0.18 M ortho-phosphoric acid to each well and absorbance was read at 450 nm.
Take B1: the “Bioactivity relative to TL1A-0002” value was found to be 1 fold and the IC50 is 5 nM.
B2: the “Bioactivity relative to TL1A-0002” value was determined as 2.7 fold and the concentration for half-maximal inhibition (IC50) stood at 13.5 nM.
The like results for B3 were, in that order, 0.8 fold and 3.8 nM.
As for B4, the “Bioactivity relative to TL1A-0002” value was found to be 3.7 fold and the concentration for half-maximal inhibition (IC50) came out at 18.4 nM.
For B5 the same measures were 7.5 fold and 37.7 nM.
The like results for B6 were, in that order, 1.2 fold and 6.2 nM.
The like results for B7 were, in that order, 2.3 fold and 11.5 nM.
For B8, the “Bioactivity relative to TL1A-0002” value was found to be 3.5 fold and the IC50 is 17.6 nM.
The like results for B9 were, in that order, 9.2 fold and 46.3 nM.
For B10 the same measures were 3.2 fold and 16 nM.
The like results for B11 were, in that order, 0.8 fold and 4.2 nM.
Turning to B12, the “Bioactivity relative to TL1A-0002” value was found to be 2.2 fold and the IC50 amounted to 10.9 nM.
For the molecule B13, the “Bioactivity relative to TL1A-0002” value was 2.3 fold and the IC50 was determined as 11.6 nM.
The like results for B14 were, in that order, 2.3 fold and 11.6 nM.
Consider B15, for which the “Bioactivity relative to TL1A-0002” value came out at 2.1 fold and the IC50 was 10.6 nM.
With B16, the “Bioactivity relative to TL1A-0002” value is 1.7 fold and the IC50 was 8.7 nM.
The like results for B17 were, in that order, 1.3 fold and 6.8 nM.
For B18, the “Bioactivity relative to TL1A-0002” value was 3.2 fold and the IC50 was 16.2 nM.
Consider B19, for which the “Bioactivity relative to TL1A-0002” value was 3.1 fold and the IC50 was 15.8 nM.
For B20 the same measures were 2.4 fold and 12.2 nM.
For B21 the same measures were 1.3 fold and 6.6 nM.
For B22 the same measures were 9.6 fold and 48.2 nM.
With B23, the “Bioactivity relative to TL1A-0002” value was 3.2 fold and the IC50 worked out at 16.2 nM.
Consider B24, for which the “Bioactivity relative to TL1A-0002” value is 3.1 fold and the IC50 came out at 15.7 nM.
For B25 the same measures were 1.4 fold and 7.3 nM.
For the molecule B26, the “Bioactivity relative to TL1A-0002” value is 2.9 fold and the IC50 was 14.5 nM.
The like results for B27 were, in that order, 7.6 fold and 38.4 nM.
The like results for B28 were, in that order, 1.9 fold and 9.5 nM.
The like results for B29 were, in that order, 2.7 fold and 13.4 nM.
In the case of B30, the “Bioactivity relative to TL1A-0002” value was determined as 1.1 fold and the IC50 came to 5.6 nM.
Take B31: the “Bioactivity relative to TL1A-0002” value turned out to be 2.6 fold and the IC50 came out at 13.3 nM.
With B32, the “Bioactivity relative to TL1A-0002” value worked out at 1.3 fold and the IC50 worked out at 6.8 nM.
The like results for B33 were, in that order, 3.2 fold and 16.2 nM.
